The text below walks through data of paper PMC8253144 (mAbs, 2021).

In this test the target is recombinant human EPHA2 ectodomain (Homo sapiens, UniProt P29317). Put plainly: BLI.
recombinant human EPHA2 ectodomain, sequence (P29317 24-537): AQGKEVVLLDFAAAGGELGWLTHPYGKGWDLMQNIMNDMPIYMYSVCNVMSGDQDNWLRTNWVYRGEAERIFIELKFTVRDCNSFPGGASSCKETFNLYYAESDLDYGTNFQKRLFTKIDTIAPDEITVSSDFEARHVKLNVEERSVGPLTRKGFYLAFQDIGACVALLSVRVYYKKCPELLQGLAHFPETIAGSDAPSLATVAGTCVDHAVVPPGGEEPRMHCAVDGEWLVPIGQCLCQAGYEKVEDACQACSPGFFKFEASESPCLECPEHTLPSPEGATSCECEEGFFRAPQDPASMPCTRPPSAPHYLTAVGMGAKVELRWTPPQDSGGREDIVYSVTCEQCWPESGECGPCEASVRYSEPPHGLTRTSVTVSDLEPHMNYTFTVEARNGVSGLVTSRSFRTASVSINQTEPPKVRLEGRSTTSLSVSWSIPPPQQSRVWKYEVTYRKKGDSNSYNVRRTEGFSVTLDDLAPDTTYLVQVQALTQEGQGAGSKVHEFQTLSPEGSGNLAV

B1: anti-EPHA2 Fab A2-4 (Fab, V domains shown)
VH: EVQLVESGGGLVQPGGSLRLSCAASGFNISSYYMHWVRQAPGKGLEWVASISPSYSYTYYADSVKGRFTISADTSKNTAYLQMNSLRAEDTAVYYCARGWSFVGMDYWGQGTLVTVSS
VL: DIQMTQSPSSLSASVGDRVTITCRASQSVSSAVAWYQQKPGKAPKLLIYSASSLYSGVPSRFSGSRSGTDFTLTISSLQPEDFATYYCQQGAPWSPITFGQGTKVEIK
As to B1, the binding result is given as “binds”.

B2: anti-EPHA2 Fab A2-3 (Fab, V domains shown)
VH: EVQLVESGGGLVQPGGSLRLSCAASGFNISYYYMHWVRQAPGKGLEWVASIYPSYSYTSYADSVKGRFTISADTSKNTAYLQMNSLRAEDTAVYYCARGGVVSWAHPAASYYVYGAMDYWGQGTLVTVSS
VL: DIQMTQSPSSLSASVGDRVTITCRASQSVSSAVAWYQQKPGKAPKLLIYSASSLYSGVPSRFSGSRSGTDFTLTISSLQPEDFATYYCQQAVWSGYPITFGQGTKVEIK
As to B2, the binding result is given as “binds”.
